Experimental findings from patent US5668264, “High affinity PDGF nucleic acid ligands” (NeXstar Pharmaceuticals, Inc.) are described below.

The target of data set [1] is PDGF BB (UniProt P01127 P01127:82-190). Kind of data set: filter; biphasic, higher affinity component. As to conditions: chain copies: BB homodimer (inferred). As to the method:
(§1) 22: 1859), and the equilibrium dissociation constants were determined by nitrocellulose filter binding. […] […]-[…]-3') SEQ ID NO: 88, and 26t (5'-[…] T-3') SEQ ID NO: 89.
(§2) The binding data were analyzed according the formalism described in Jellinek et al., 1994: supra.

Data set [2] addresses T1, PDGF AB (Homo sapiens, UniProt P04085;P01127 P04085:87-211,P01127:82-190). Put plainly: filter; biphasic, higher affinity component. The note with it: tags: R&D Systems 222-AB; chain copies: A/B chain heterodimer (inferred). As for the experimental part:
as §1, §2

In data set [3] the target is T1, PDGF AB. Kind of data set: filter; among seven highest affinity ligands; data not shown. As to conditions: tags: R&D Systems 222-AB; chain copies: A/B chain heterodimer (inferred).
The target of data set [4] is PDGF AA (UniProt P04085 P04085:87-211). Kind of data set: filter; monophasic. The note with it: chain copies: AA homodimer (inferred). The text has this:
[…]-[…]-3') SEQ ID NO: 88, and 26t (5'-[…] T-3') SEQ ID NO: 89.

T1 sequence (P01127 82-190, chain 2 of 2, other chains not shown): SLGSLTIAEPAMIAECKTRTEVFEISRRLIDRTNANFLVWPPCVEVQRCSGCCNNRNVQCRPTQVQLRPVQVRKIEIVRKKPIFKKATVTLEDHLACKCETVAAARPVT
Chain of PDGF BB (P01127 82-190, one chain of several): as the sequence (P01127 82-190, chain 2 of 2, other chains not shown) above

B1: 41t (ssDNA)
DNA: TACTCAGGGCACTGCAAGCAATTGTGGTCCCAATGGGCTGAGTAT
modifications: 3'-3' inverted T at 3' end
On to B1, for which the Kd in data set [1] is 0.056 nM; in data set [2], 0.051 nM.

B2: ssDNA ligand 36 (ssDNA)
DNA: ATCCGCCTGATTAGCGATACTCCACAGGCTACGGCACGTAGAGCATCACCATGATCCTGTGACTTGAGCAAAATCACCTGCAGGGG
Take B2: the binding result in data set [3] is listed as “binds”.

B3: ssDNA ligand 38 (ssDNA)
DNA: ATCCGCCTGATTAGCGATACTAAAGTCGTGCAGGGTCCCCTGGAAGCATCTCCGATCCCAGACTTGAGCAAAATCACCTGCAGGGG
Consider B3, for which the binding result in data set [3] is on record as “binds”.

B4: ssDNA ligand 14 (ssDNA)
DNA: ATCCGCCTGATTAGCGATACTAGGCTTGACAAAGGGCACCATGGCTTAGTGGTCCTAGTACTTGAGCAAAATCACCTGCAGGGG
For B4, the binding result in data set [3] is given as “binds”.

B5: 36t (ssDNA)
DNA: CCACAGGCTACGGCACGTAGAGCATCACCATGATCCTGTGT
modifications: 3'-3' inverted T at 3' end
As for B5, the Kd came to 72 nM in data set [4], 0.054 nM in data set [1] and 0.082 nM in data set [2].

B6: ssDNA ligand 40 (ssDNA)
DNA: ATCCGCCTGATTAGCGATACTAGTGGAACAGGGCACGGAGAGTCAAACTTTGGTTTCCCCCACTTGAGCAAAATCACCTGCAGGGG
As for B6, the binding result in data set [3] is given as “binds”.

B7: ssDNA ligand 26 (ssDNA)
DNA: ATCCGCCTGATTAGCGATACTAGAGGGGAAGTAGGCTGCCTGACTCGAGAGAGTCCTCCCGACTTGAGCAAAATCACCTGCAGGGG
As to B7, in data set [3], the binding result is “binds”.

B8: 20t-a (ssDNA)
DNA: TGGGAGGGCGCGTTCTTCGTGGTTACTTTTAGTCCCGT
modifications: 3'-3' inverted T at 3' end (described for truncated ligands)
With B8, the Kd in data set [1] came to 0.09 nM; in data set [2], 0.082 nM.
